Experimental data: the RNAGym collection of RNA variant scans (doi:10.7554/elife.80360)

B1: HDV Ribozyme (parent)
chain: GGCCGGCAUGGUCCCAGCCUCCUCGCUGGCGCCGGCUGGGCAACAUUCCGAGGGGACCGUCCCCUCGGUAAUGGCGAAUGGGACCCA

Variants of: B1
Assay: self-cleavage, relative activity (ratio to wild type); higher = more cleavage; co-transcriptional

Variant	self-cleavage
C41A	0.94
C41G	0.798
C41G C58G	0.974
C41A G74A	0.692
C41A A71G	0.91
C41A A71U	0.665
G40C U60C	0.332
G40C U60G	0.271
G40C U46A	0.0339
G40C U46G	0.0831
G40A G76A	0.918
G40A A56G	1.11
G40A A56C	0.878
G40U C75U	0.271
G40U C75A	0.12
C41A G81U	0.211
G40A G68C	0.794
G40C A70C	0.208
G40C A70G	0.0941
G40C A70U	0.191
G40A G54U	0.971
G40C A78C	0.147
G40U U79A	0.262
G40C G59A	0.179

Variant	self-cleavage
G40C G59U	0.326
C41G A43G	0.262
C41G A43C	0.308
C41G A43U	0.277
G40U C49G	0.888
G40A C66U	0.892
G40A C66G	0.655
G40U A71G	0.46
G40U A71U	0.459
G40U A87C	0.732
G40A G81C	0.29
G40A G81U	0.342
G40A G50U	0.842
G40A G50C	0.92
C41A G52A	0.901
C41A G52C	0.928
C41A C75U	0.145
C41A C75G	0.0773
C41A C75A	0.208
G40U U72C	0.176
G40U U72A	0.181
C41A U72C	0.653
C41A U72G	0.712
C41A U72A	0.906

Variant	self-cleavage
G40C G73U	0.233
C41G C48U	0.649
C41G C48G	0.682
C41G C48A	1.12
C41A U60C	1.05
G40C A51U	0.157
C41A A45U	0.872
C41A A45G	0.942
C41A A45C	0.504
G40C C85U	0.0804
G40C C85A	0.128
G40C G52U	0.246
G40C G52A	0.247
G40C G52C	0.0573
G40U G80U	0.171
G40A G55A	0.882
G40A G55U	1.17
G40U A43U	0.146
G40U A43C	0.374
C41A U47A	0.689
C41G A83U	0.77
G40A C85U	1.1
G40A C85G	0.807
C41A C66U	0.9

Variant	self-cleavage
G40C A77U	0.128
C41A A42G	0.269
G40C G76U	0.346
G40A A45C	0.671
G40A A45U	0.563
C41A G54U	0.862
C41A G68C	0.665
C41A G68U	0.561
C41A G68A	1.01
G40U C48A	0.76
G40U C48G	0.665
G40U C48U	0.628
C41G A45U	0.594
C41G A45G	1.01
C41G A45C	0.166
G40U G52U	0.576
C41A A83U	0.35
G40C C62G	0
G40C C62A	0.237
G40C G50A	0.219
G40C G50U	0.269
G40C G50C	0.225
C41A A78C	0.185
C41A A78G	0.534

Variant	self-cleavage
G40A C63U	0.895
G40A C63A	0.856
G40A C63G	0.46
G40A C48A	0.941
G40A C48G	1.06
G40A C48U	0.793
G40U C64G	0.446
G40U G73C	0.166
G40U G73A	0.463
G40C A45C	0.0845
G40U C84G	0.354
G40U C84A	0.383
G40U C84U	0.398
G40U C63A	0.793
C41A A87G	0.883
C41A A87U	0.866
C41A A87C	1
G40A C64G	0.531
G40A C64A	0.89
G40C C86G	0.222
G40A A71U	0.796
C41G C49A	0.489
C41G A42U	0.886
G40U G53U	0.75

Variant	self-cleavage
C41A C85A	0.636
C41A C85G	0.86
C41A C58A	0.831
C41A C58U	0.778
G40A A83C	0.272
G40A A83U	0.251
G40A A83G	0.573
G40A A42C	0.543
G40U G74A	0.415
G40C A71U	0.228
G40C A71G	0.162
G40U C61U	0.631
G40U C61A	0.632
G40U C61G	0.534
G40U U60C	0.723
G40U U60A	0.795
G40U U60G	0.796
C41A C48A	0.982
C41A C48U	1.02
G40U A78C	0.132
G40U A78U	0.191
C41A C44A	0.404
C41A C44U	0.692
C41A A70U	0.817

Variant	self-cleavage
G40A U72C	0.504
G40U U65G	0.546
G40U U65C	0.7
G40U C86A	0.682
G40U C86U	0.688
G40U C86G	0.562
C41A A51C	0.875
C41A A51G	0.705
G40U G54C	0.513
G40C A83G	0.163
C41A C61G	0.909
C41A C61A	1.07
C41A U65C	1.14
G40C C49U	0.125
G40C C49A	0.381
C41G A51C	0.635
G40A C75U	0.157
G40C G53U	0.337
G40C G53A	0.332
G40C G53C	0.17
G40U U46A	0.364
C41A G67C	0.525
C41G A77U	0.185
